Experimental data as given in doi:10.1101/2025.01.21.634112.

What was measured:
[1] = target: Monodelphis domestica von Willebrand Factor (VWF) (Monodelphis domestica)
[2] = target: human von Willebrand Factor (VWF) (human) (UniProt P04275)

botrocetin from Bothrops jararaca (complex)
reduction in the overall extent of platelet adhesion to collagen under flow (60 dyn/cm^2, 10 min) in opossum PRP with 4 ug/mL botrocetin, compared to the negative control [1]: 39% | reduction in the overall extent of platelet adhesion to collagen under flow (60 dyn/cm^2, 10 min) in human PRP with 4 ug/mL botrocetin, compared to the negative control [2]: 66%
